Results: the supplement of paper PMC7877785
± gives the uncertainty stated by the source.

Experiment: self-splicing fitness, log relative to wild type (ln ratio); higher = more splicing; Tetrahymena group I intron in knt gene, E. coli kanamycin selection, DiMSum; sequences stand for … in CUCUCU…GGAGGGAAAAGUUAUCAGGCAUGCACCUGGUAGCUAGUCUUUAAACCAAUAGAUUGCAUCGGUUUAAAAGGCAAGACCGUCAAAUUGCGGGAAAGGGGUCAACAGCCGUUCAGUACCAAGUCUCAGGGGAAACUUUGAGAUGGCCUUGCAAAGGGUAUGGUAAUAAGCUGACGGACAUGGUCCUAACCACGCAGCCAAGUCCUAAGUCAACAGAUCUUCUGUUGAUAUGGAUGCAGUUCACAGACUAAAUGUCGGUCGGGGAAGAUGUAUUCUUCUCAUAAGAUAUAGUCGGACCUCUCCUUAAUGGGAGCUAGCGGAUGAAGUGAUGCAACACUGGAGCCGCUGGGAACUAAUUUGUAUGCGAAAGUAUAUUGAUUAGUUUUGGAGUACUCGUGGUCG
Outline: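 Colonies from six replicate transformations of E. coli BL21(DE3) were pooled and amplicon-sequenced on an Illumina HiSeq 2500. The library placed an intron with all eight P1ex-region nucleotides randomised inside the knt kanamycin-resistance gene on pET-22b(+), and cells grew overnight at 37°C or 30°C on LB agar with or without 25 μg/mL kanamycin (plus 100 μg/mL carbenicillin, 50 μM IPTG, 0.2% rhamnose). Fitness is the DiMSum error-weighted combination of wild-type-normalised replicate fold changes, kanamycin versus none.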

Row | Sequence | self-splicing fitness (ln) (30 °C) | self-splicing fitness (ln) (37 °C)
1 | UGCGAGCAAUAUUACGACUG | -0.639 ± 0.17 | -0.0696 ± 0.2
2 | UUCUAGCAAUAUUACGAAUG | -2.45 ± 0.4 | 
3 | UAUGAGCAAUAUUACGGCAC | -2.09 ± 0.28 | 
4 | UGAUAGCAAUAUUACGGCCC | -2.82 ± 0.48 | -0.72 ± 0.42
5 | CGAUAGCAAUAUUACGCGGA | -2.21 ± 0.22 | -0.662 ± 0.15
6 | AGCGAGCAAUAUUACGGAAU | -2.56 ± 0.26 | -2.66 ± 0.38
7 | GGCCAGCAAUAUUACGUACC | -0.685 ± 0.13 | 1.43 ± 0.17
8 | AACUAGCAAUAUUACGCCAG | -1.99 ± 0.16 | -0.848 ± 0.23
9 | GAUCAGCAAUAUUACGGGCA | -0.237 ± 0.098 | -0.574 ± 0.11
10 | CGACAGCAAUAUUACGGCCG | -2.22 ± 0.12 | -1.21 ± 0.12
11 | AGUUAGCAAUAUUACGGCAU | -0.297 ± 0.063 | -0.161 ± 0.085
12 | AACUAGCAAUAUUACGUGGG | -3.79 ± 0.23 | -2.38 ± 0.17
13 | CUGCAGCAAUAUUACGAAUA | -1.74 ± 0.45 | -1.3 ± 0.2
14 | AUUCAGCAAUAUUACGGAAG | -1.02 ± 0.096 | -0.0127 ± 0.11
15 | GGUAAGCAAUAUUACGGCCG | -0.712 ± 0.12 | -0.544 ± 0.17
16 | UAGCAGCAAUAUUACGAGAG | -2.8 ± 0.2 | -3.15 ± 0.29
17 | GAAUAGCAAUAUUACGUUAU | -2.79 ± 0.12 | -1.65 ± 0.14
18 | UGAAAGCAAUAUUACGGUCU | -0.0503 ± 0.077 | -0.209 ± 0.085
19 | GAUCAGCAAUAUUACGAGCU | -1.42 ± 0.15 | -0.233 ± 0.15

Row | Sequence | self-splicing fitness (ln) (30 °C) | self-splicing fitness (ln) (37 °C)
20 | GAGCAGCAAUAUUACGGAAG | -3.65 ± 0.21 | -3.24 ± 0.26
21 | ACGAAGCAAUAUUACGAGAC | -2.39 ± 0.38 | 
22 | UGUCAGCAAUAUUACGUGGC | -4.53 ± 0.31 | -3.13 ± 0.31
23 | GCAUAGCAAUAUUACGCGAU | -3.36 ± 0.16 | -1.93 ± 0.14
24 | CCCGAGCAAUAUUACGUUGC | -3.75 ± 0.12 | -2.71 ± 0.16
25 | CUCGAGCAAUAUUACGAGUG | -1.7 ± 0.1 | -1.47 ± 0.12
26 | AUCGAGCAAUAUUACGAUUA | -2.47 ± 0.23 | 0.0165 ± 0.12
27 | CCAGAGCAAUAUUACGGUGU | -3.53 ± 0.16 | -2.7 ± 0.2
28 | AUGGAGCAAUAUUACGUCAA | -1.77 ± 0.35 | -0.821 ± 0.36
29 | GAGCAGCAAUAUUACGUACC | -0.46 ± 0.12 | -0.225 ± 0.14
30 | AGAGAGCAAUAUUACGCGAA | -3.26 ± 0.37 | -2.82 ± 0.34
31 | AUUGAGCAAUAUUACGGAUG | -3.43 ± 0.28 | -2.69 ± 0.38
32 | CACCAGCAAUAUUACGCGUA | -0.717 ± 0.061 | -0.165 ± 0.066
33 | UUAGAGCAAUAUUACGAGAG | -0.212 ± 0.24 | -1.7 ± 0.24
34 | CGUCAGCAAUAUUACGGCGG | -1.01 ± 0.082 | 0.0141 ± 0.11
35 | AGAUAGCAAUAUUACGUUAU | -3.23 ± 0.17 | -3.55 ± 0.25
36 | ACACAGCAAUAUUACGCCGG | -1.36 ± 0.09 | -0.466 ± 0.11
37 | AGGGAGCAAUAUUACGGCAA | -3.52 ± 0.48 | -1.8 ± 0.27
38 | AUGUAGCAAUAUUACGCCUU | -0.114 ± 0.1 | -0.413 ± 0.13
